Legend:
ENAH EVH1 = ENAH EVH1 (Homo sapiens, UniProt Q8N8S7); test: BLI
Homer1 EVH1 = target: T1, Homer1 EVH1 (Homo sapiens, UniProt Q86YM7); test: BLI
T1 chain: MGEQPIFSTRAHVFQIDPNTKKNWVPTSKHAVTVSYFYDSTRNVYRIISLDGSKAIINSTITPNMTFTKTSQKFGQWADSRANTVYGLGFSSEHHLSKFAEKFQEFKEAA

ENAH EVH1, sequence (Q8N8S7 1-111): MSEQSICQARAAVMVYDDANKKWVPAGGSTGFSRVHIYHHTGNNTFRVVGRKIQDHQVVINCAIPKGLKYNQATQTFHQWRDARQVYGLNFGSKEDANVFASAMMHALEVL

Binder	Kd (ENAH EVH1) [µM]	Kd (Homer1 EVH1) [µM]
RPATGYPLPPQIFNESQYRG [SH3BGRL]	> 150	–
ALPHPGAAPWPMAFPYQYPPPAHPYNPHPGFPELGY [DVL3P1A]	–	> 150
FIAHILPAPPDCFPDKVKAF [FLNC]	> 150	–

Now from value to binder:

Kd (ENAH EVH1) [µM]	Kd (Homer1 EVH1) [µM]	Binder
> 150	–	GYPYQYPGPPPCFPPAYQDP [DVL1]
> 150	–	PNHLPLPGPPFSFQNVLVVL [KANK4]
